{"source": "paper PMC6764946", "about": "“Non-enzymatic roles of human RAD51 at stalled replication forks”", "key": {"[1]": {"target": "hsRAD51-WT (Homo sapiens, UniProt Q06609 1-339)", "sequence (Q06609 whole entry)": "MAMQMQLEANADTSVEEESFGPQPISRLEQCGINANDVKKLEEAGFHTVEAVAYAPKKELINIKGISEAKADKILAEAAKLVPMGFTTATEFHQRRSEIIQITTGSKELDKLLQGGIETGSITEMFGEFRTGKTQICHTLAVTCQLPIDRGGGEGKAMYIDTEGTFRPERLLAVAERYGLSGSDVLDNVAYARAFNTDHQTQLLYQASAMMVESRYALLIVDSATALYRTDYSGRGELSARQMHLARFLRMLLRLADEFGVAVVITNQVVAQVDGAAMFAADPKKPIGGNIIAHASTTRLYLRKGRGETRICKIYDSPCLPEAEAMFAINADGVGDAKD", "assay": "fluorescence polarization; 1 mM ATP, 1 mM MgCl2, 50 uM CaCl2; apparent Kd; 25 mM Tris-HCl pH 7.8, 1 mM MgCl2, 1 mM ATP, 1 mM DTT, 50 mM NaCl (printed NaCl2), 50 uM CaCl2, 100 ug/ml BSA, 37 C, 30 min; 2.4 nM oligo, RAD51 10-1000 nM", "details": "protein: recombinant; tags: C-terminal His6; label: 5' Alexa Fluor 488 (Methods; legend says fluorescein); single strand"}, "[2]": {"target": "hsRAD51-II3A (Homo sapiens, UniProt Q06609 1-339, R130A;R303A;K313A)", "sequence (Q06609 whole entry R130A/R303A/K313A)": "as the sequence (Q06609 whole entry) above, with R130A, R303A, K313A counted along it", "assay": "fluorescence polarization; 1 mM ATP, 1 mM MgCl2, 50 uM CaCl2; apparent Kd; modest binding defect; 25 mM Tris-HCl pH 7.8, 1 mM MgCl2, 1 mM ATP, 1 mM DTT, 50 mM NaCl (printed NaCl2), 50 uM CaCl2, 100 ug/ml BSA, 37 C, 30 min; 2.4 nM oligo, RAD51 10-1000 nM", "details": "protein: recombinant; tags: C-terminal His6; label: 5' Alexa Fluor 488 (Methods; legend says fluorescein); single strand"}}, "data": [{"binder": "84-mer ssDNA (ssDNA) DNA: GGTAGCGGTTGGGTGAGTGGTGGGGAGGGTCGGGAGGTGGCGTAGAAACATGATAGGAATGTGAATGAATGAAGTACAAGTAAA", "values": [{"measurement": "Kd", "setting": "[1]", "result": "57 ± 1", "unit": "nM"}, {"measurement": "Kd", "setting": "[2]", "result": "132 ± 5", "unit": "nM"}]}]}
